Measured values from US20050037969A1 (ARBOR VITA, published 2005).
Ends that are not written are not given here. * marks the point of attachment. Biotin = O=C1N[C@H]2[C@H](CS[C@H]2CCCCC(=O)*)N1

How the values were obtained:
[1] = target: T1, GST-PSD95 fusion protein (PDZ domains 1-3) (human, UniProt P31016 56-395 (rat entry)); test: G assay competition on plate-bound GST-PSD95, competitor at 100 uM; blocked ligands: biotinylated Clasp 2 and CD46 (20 uM), Fas and KV1.3 (10 uM) peptides
T1 construct: also called human post-synaptic density protein 95; not shown: glutathione S-transferase encoded by vector pGEX-3X (Pharmacia)
T1 sequence (P31016 other isoform, or with tags, fused parts or gaps): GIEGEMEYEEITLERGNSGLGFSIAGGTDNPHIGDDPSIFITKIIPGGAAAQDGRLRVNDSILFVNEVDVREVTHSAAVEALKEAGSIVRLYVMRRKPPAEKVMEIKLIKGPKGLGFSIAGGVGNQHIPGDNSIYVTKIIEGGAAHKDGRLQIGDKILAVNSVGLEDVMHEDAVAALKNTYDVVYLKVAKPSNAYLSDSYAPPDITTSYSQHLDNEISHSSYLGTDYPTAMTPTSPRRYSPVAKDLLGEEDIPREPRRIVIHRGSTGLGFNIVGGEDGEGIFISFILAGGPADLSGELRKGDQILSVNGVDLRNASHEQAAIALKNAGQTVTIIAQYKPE

[2] = target: T2, GST-41.8 kD protein (KIAA0751) PDZ domain fusion protein (Mus musculus (Mouse), UniProt Q9EQZ7 682-763); test: G assay competition on plate-bound GST-41.8kD; blocked ligand: 20 uM biotinylated CD49E peptide
T2 construct: also called 41 kd; hypoth; not shown: glutathione S-transferase encoded by vector pGEX-3X (Pharmacia)
T2 sequence: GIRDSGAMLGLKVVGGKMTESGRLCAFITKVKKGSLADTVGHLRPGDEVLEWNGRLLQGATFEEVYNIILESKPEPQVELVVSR

[3] = target: T3, KIAA0807 (PDZ domain)-GST fusion protein (human, UniProt Q6P0Q8 1104-1192); test: G assay competition against 10 uM DOCK2 20-mer; acetyl-STDL competing against 10 uM DOCK2 20-mer
T3 construct: also called K807; KIAA807; not shown: glutathione S-transferase encoded by vector pGEX-3X (Pharmacia)
T3 sequence: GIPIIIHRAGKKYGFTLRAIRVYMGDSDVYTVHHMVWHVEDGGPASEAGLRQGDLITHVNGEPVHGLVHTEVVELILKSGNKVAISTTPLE

[4] = target: T1, GST-PSD95 fusion protein (PDZ domains …); test: G assay: biotinylated peptide on plate-bound GST-PDZ fusion, OD 450 nm
[5] = target: T3, KIAA0807 (PDZ domain)-GST fusion protein; test: G assay competition against 1 uM BLR-1 20-mer
[6] = target: T3, KIAA0807 (PDZ domain)-GST fusion protein; test: G assay competition against 10 uM DOCK2 20-mer; 8-mer DOCK2 peptide competing against 10 uM DOCK2 20-mer

B1: Fas (CD95) 8-mer competitor peptide RNEIQSLV (unlabeled) (peptide)
peptide: RNEIQSLV
notes: also called FAS-8-mer; 8-mer peptide corresponding to the C-terminus of CD95 (Fas)
- binding result [1]: binds

Binder: ATSDA (also called 5-mer CD49E peptide ATSDA) [CD49E 5mer]
- binding result [2]: binds

Binder: Ac-STDL (it is an N-acetyl tetrapeptide) [acetyl-STDL]
- IC50 [3]: < 250 µM

Binder: TTNNNPNSAVNIKKIFTDV (also called KV13 peptide) [unlabeled 19-mer having the sequence of the C-terminus of KV1.3 (non-biotinylated AA33L)]
- binding result [1]: binds

B2: 30 (peptide)
peptide: Biotin-TIYENLAPVTTFGKTIA
notes: Not the same peptide as m50 (AA19L, ending GYIA); the key gives AA55L for peptide 30; also called CD148
- binding result [4]: no binding

Binder: NATSLTTF (also called BLR-1 8-mer) [8-mer peptide corresponding to the C-terminus of BLR-1]
- IC50 [5]: > 100 µM

Binder: PDSLSTDL (also called DOCK2 8-mer) [8-mer peptide corresponding to the C-terminus of DOCK2]
- IC50 [6]: 250 µM

Binder: Ac-LTTF (it is an N-acetyl tetrapeptide) [acetyl-LTTF]
- IC50 [5]: 1 µM

Binder: REVKFTSL [CD46 8-mer competitor peptide REVKFTSL (unlabeled)]
- binding result [1]: binds
